Data on 17 sequences can be found in the supplement of paper PMC9170038.

The data set has as its system MS2 coat protein. Put plainly: apparent KD of MS2 coat protein; higher = weaker reporter binding. The conditions noted are these: Eterna round: R107. The protocol: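 RNA-MaP round R107: designed RNA switches with theophylline, tryptophan, arginine or FMN aptamers are transcribed on-chip within common flanks. They are titrated with SNAP-549-labelled MS2 coat protein in RNA-MaP buffer (100 mM Tris pH 7.5, 80 mM KCl, 4 mM MgCl2), without ligand or with the indicated ligand. Median apparent KD per design.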

Setting [1] is: input ligand: theophylline 20 uM.
The mark [2] stands for this setting: input ligand: tryptophan 2.4 mM.
Where [3] appears, read: input ligand: theophylline 2 mM.

Regarding “AGCAUGUUAUCAGAUACCAGACAUCUUUUUUUACGUAUUACAUGAGGAUCACCCAUGUUGGUCCCUUGGCAGCUGAAAUAUUUCA [JR_Nu_SSTheophyB_Sub022]”, the “apparent KD of MS2 coat protein” value reads like this: (input ligand: arginine 13.2 mM) 167 nM; under setting [1], 269 nM; under setting [2], 219 nM.

Turning to “GGUUACUCUACGGCCGCCACUGGGCAUGUAAAUAACAUGAGGAUCACCCAUGUGGAUUAAUAUUACAGGACCGGGUAGUGUAACC [Tryptophan B 23]”, the “apparent KD of MS2 coat protein” value reads like this: (input ligand: arginine 13.2 mM) 126 nM; (input ligand: none) 279 nM; under setting [1], 253 nM; under setting [3], 384 nM; under setting [2], 25.1 nM.

Regarding “CUUAUAGUAACUGAUACCAGUGUACUGACAUGAGGAUCACCCAUGUUGGGUUUUGUUGUACACCCUUGGCAGCAGAAUCUAUAAG [AstrosExyTheB#10]”, the “apparent KD of MS2 coat protein” value is 49.2 nM (input ligand: arginine 13.2 mM), 65.7 nM under setting [1] and 58.8 nM under setting [2].

As to “UCGCUCUGGGUGAGAUCCGGAGAUGUGGAAGGAGCGCUGGAAACAGCAGGUAGGUCGCCAACGGACAUGAGGAUCACCCAUGUAC [Same State - Arginine A (Freestyle 19)]”, the “apparent KD of MS2 coat protein” value is, setting by setting: (input ligand: arginine 13.2 mM) 41.4 nM; (input ligand: none) 44.4 nM; under setting [1], 75.3 nM; under setting [3], 31.9 nM; under setting [2], 81.5 nM.

Regarding “AGUACUCGAACGGAUACCAGCCGGACAUGAGGAUCACCCAUGUCCUACCAUGGUUCGGUUGGCCCUUGGCAGCCGUUCGUGUACA [Omei Theo B SS A v3]”, the “apparent KD of MS2 coat protein” value by setting is: (input ligand: arginine 13.2 mM) 128 nM; under setting [1], 204 nM; under setting [2], 203 nM.

“GGCACCAGGAGAAGGAGCGUGAAGACAUGAGGAUCACCCAUGUAGAGGCCCGUACCGGGUUCGCAGGUAGGUCGCUCCUGGUGCC [#1 Same State - Arginine B Attempt #14 (HarryS)]”: the “apparent KD of MS2 coat protein” value (input ligand: arginine 13.2 mM) is 19.2 nM; the “apparent KD of MS2 coat protein” value (input ligand: none) is 23 nM; the “apparent KD of MS2 coat protein” value under setting [1] came out at 38.1 nM; the “apparent KD of MS2 coat protein” value under setting [3] was found to be 27.1 nM; the “apparent KD of MS2 coat protein” value under setting [2] is 24.2 nM.

Take “UCGGGCAGAGCGGCCGCCACUGUUUGGCGUGCGGAUGACGGAACAUGAGGAUCACCCAUGUUGAUUAGGACCGGGCUUGCGGAGA [qpqullin]”: the “apparent KD of MS2 coat protein” value reads like this: (input ligand: arginine 13.2 mM) 11.3 nM; (input ligand: none) 14.7 nM; under setting [1], 24.1 nM; under setting [3], 13.8 nM; under setting [2], 14.7 nM.

In the case of “GGAGCUACGUCGGCCGCCACUAGCGGUUAUUACGUGUACAUGAGGAUCACCCAUGUAAUAUGGCUUAGGACCGGGACGUAGCUCC [Wolverine]”, the “apparent KD of MS2 coat protein” value by setting is: (input ligand: arginine 13.2 mM) 21 nM; under setting [1], 29 nM; under setting [3], 27.8 nM.

Consider “CACAAUUUGUCGGCCGCCACUAAGGUAACUUUUCUCACAUGAGGAUCACCCAUGUGCCCGAAACUUAGGACCGGGAUAAUGGGUG [Usteraor]”, for which the “apparent KD of MS2 coat protein” value runs as follows: (input ligand: arginine 13.2 mM) 35.9 nM; under setting [1], 146 nM; under setting [3], 183 nM.

Regarding “CUAAGAGCGGCGGCCGCCACUGGUAACCGAGAGGAGGAGCCUCUGACAUGAGGAUCACCCAUGUUCAGGACCGGGUCGUCUUAGA [#06 Same State - Tryptophan B]”, the “apparent KD of MS2 coat protein” value by setting is: (input ligand: arginine 13.2 mM) 41.2 nM; (input ligand: none) 60.2 nM; under setting [1], 77.5 nM; under setting [3], 74.4 nM; under setting [2], 54.6 nM.

For the sequence “AGAGGUAUACAUGGAAACAUGUAUAUUUCACGAGGACCGGUACGGCCGCCACUCGGUACCGGAAACACAUGAGGAUCACCCAUGU [Ex_TrypA - H1]”, the “apparent KD of MS2 coat protein” value runs as follows: (input ligand: arginine 13.2 mM) 17 nM; under setting [1], 23.2 nM; under setting [3], 24.3 nM.

On to “ACGCGCUGGGCGGCCGCCACUCACCUGCCGUGGACAUUUCGAGGUCACAUGAGGAUCACCCAUGUGAGGACCGGGCCCUGUAGGC [theeternabot_exclusion_MS2_Trp_B_37]”, for which the “apparent KD of MS2 coat protein” value is, setting by setting: (input ligand: arginine 13.2 mM) 12.3 nM; under setting [1], 17 nM; under setting [3], 12.7 nM.

On to “AACAUGAGCACGGCCGCCACUCCAUGAACAUGAGGAUCACCCAUACACAUGAGGAUCACCCAUGUGAGGACCGGGUGUCCAUGUG [Exclusion Tryptophan B 2]”, for which the “apparent KD of MS2 coat protein” value is, setting by setting: (input ligand: arginine 13.2 mM) 12.6 nM; under setting [1], 18.7 nM; under setting [3], 16.5 nM.

As for “AUACCACCUUCGGCCGCCACUAUGUAUGGGUUCCCAACGUUGAAGGACAUGAGGAUCACCCAUGUUAGGACCGGGAAAAGUGCCU [theeternabot_exclusion_MS2_Trp_B_17]”, the “apparent KD of MS2 coat protein” value (input ligand: arginine 13.2 mM) stood at 45.3 nM, the “apparent KD of MS2 coat protein” value under setting [1] is 106 nM and the “apparent KD of MS2 coat protein” value under setting [3] was 103 nM.

For the sequence “AGAUGUAGCGGAAGGAGCGACAAGAGGAUCACCCUUGUCUCCCGUUGUGGGAGUUCCUUAGGUCAGGUAGGUCGCCGUUACGUCA [Omei Arg B SS B v4]”, the “apparent KD of MS2 coat protein” value is 22.7 nM (input ligand: arginine 13.2 mM); 22.9 nM (input ligand: none); 38.4 nM under setting [1]; 28.6 nM under setting [3]; 25 nM under setting [2].

Take “AGCACAUGAGGAUCACCCAUGUGUCGGUACCGAGGACCGGUACGGCCGCCACUCGCAGGACAUGAGGAUCACCCAUGUGCCGCCG [SSTA DOUBLE!!! :-D #8]”: the “apparent KD of MS2 coat protein” value (input ligand: arginine 13.2 mM) worked out at 14 nM, the “apparent KD of MS2 coat protein” value under setting [1] was 36.1 nM and the “apparent KD of MS2 coat protein” value under setting [3] is 35.9 nM.

Regarding “ACAUGAGGAUCACCCAUGUAAUCCUCUGAAGGAGCGAGAAAUAACUCAGGUAGGUCGCAGUUCAAAACAUGAGGAUCACCCAUGU [Exclusion Arginine A GF 9]”, the “apparent KD of MS2 coat protein” value (input ligand: arginine 13.2 mM) was found to be 28.9 nM; the “apparent KD of MS2 coat protein” value (input ligand: none) amounted to 43.3 nM; the “apparent KD of MS2 coat protein” value under setting [1] came out at 52.6 nM; the “apparent KD of MS2 coat protein” value under setting [3] was determined as 46.2 nM; the “apparent KD of MS2 coat protein” value under setting [2] was found to be 51.1 nM.
